Substrate in this data set: C=C(O[C@@H]1C=C(C(=O)O)C=C[C@H]1O)C(=O)O
As to the kind of experiment: enzyme kinetics, triplicate. The class given is biochemical, Saccharomyces cerevisiae. The following applies: pH 6.5 or 7.5, 22 °C, 150 mM NaCl. The source says:
enzyme kinetics, triplicate on chorismate mutase (CM) | a similar mutation (E219A)

By Km is commonly meant the concentration of substrate that gives half-maximal velocity.

B1: chorismate mutase (CM) (Saccharomyces cerevisiae S288C; E219A) (protein)
chain: MDFTKPETVLNLQNIRDELVRMEDSIIFKFIERSHFATCPSVYEANHPGLEIPNFKGSFLDWALSNLEIAHSRIRRFESPDETPFFPDKIQKSFLPSINYPQILAPYAPEVNYNDKIKKVYIEKIIPLISKRDGDDKNNFGSVATRDIECLQSLSRRIHFGKFVAEAKFQSDIPLYTKLIKSKDVEGIMKNITNSAVEEKILERLTKKAEVYGVDPTNASGERRITPEYLVKIYKEIVIPITKEVEVEYLLRRLEE
notes: TEV-cleavable tagged CM in pET21a, E. coli BL21*(DE3); 60 kDa homodimer
As to B1, the Michaelis-Menten constant (Km) is 600 ± 200 µM.
